# According to paper PMC10397247:
# Where two headings read alike, the source gives them in different places.
# B1: 4H3070-bA (peptide)
# chain: DKIAQLKQKNAELKQKNAELKWKIAQLKQ
# B2: 4H1544-bH (peptide)
# chain: DENQELKKEIEELEREIWELEKKNQELKR
# B3: O14 (peptide)
# chain: ENAALEAEIAALEYENAALEAKIAALKG
# Legend:
# [1] = target: T1, 4H3070-bA; test: two-hybrid library CCNG1;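 further: natural log of median RNA to DNA barcode read ratio; higher means stronger binding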
# T1 chain: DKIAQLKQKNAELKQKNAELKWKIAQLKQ
# [2] = target: T2, 4H342-bA; test: two-hybrid library CCNG1;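 further: natural log of median RNA to DNA barcode read ratio; higher means stronger binding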
# T2 chain: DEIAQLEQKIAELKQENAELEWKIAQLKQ
# [3] = target: T3, 4H3632-bA; test: two-hybrid library CCNG1;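 further: natural log of median RNA to DNA barcode read ratio; higher means stronger binding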
# T3 chain: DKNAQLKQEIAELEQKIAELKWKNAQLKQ
# [4] = target: T4, 4H496-bA; test: two-hybrid library CCNG1;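 further: natural log of median RNA to DNA barcode read ratio; higher means stronger binding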
# T4 chain: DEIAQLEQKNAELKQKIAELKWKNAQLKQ
# [5] = target: T5, 4H883-bA; test: two-hybrid library CCNG1
# T5 chain: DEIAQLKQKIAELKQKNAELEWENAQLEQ
# [6] = target: T6, 4H1544-bH; test: two-hybrid library CCNG1
# T6 chain: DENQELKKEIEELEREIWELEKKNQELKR
# [7] = target: T7, 4H1710-bH; test: two-hybrid library CCNG1
# T7 chain: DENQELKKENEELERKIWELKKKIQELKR
# [8] = target: T8, 4H1899-bH; test: two-hybrid library CCNG1
# T8 chain: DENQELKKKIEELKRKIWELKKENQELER
# [9] = target: T9, 4H1985-bH; test: two-hybrid library CCNG1
# T9 chain: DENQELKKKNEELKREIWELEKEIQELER
# [10] = target: T10, 4H3162-bH; test: two-hybrid library CCNG1
# T10 chain: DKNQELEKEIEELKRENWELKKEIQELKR
# [11] = target: T11, 4H3175-bH; test: two-hybrid library CCNG1
# T11 chain: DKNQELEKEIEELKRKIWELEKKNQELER
# [12] = target: T12, 4H3277-bH; test: two-hybrid library CCNG1
# T12 chain: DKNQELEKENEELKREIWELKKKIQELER
# [13] = target: T13, 4H3298-bH; test: two-hybrid library CCNG1
# T13 chain: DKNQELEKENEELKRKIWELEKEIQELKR
# [14] = target: T14, 4H3462-bH; test: two-hybrid library CCNG1
# T14 chain: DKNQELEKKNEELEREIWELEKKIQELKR
# [15] = target: T15, 4H3497-bH; test: two-hybrid library CCNG1
# T15 chain: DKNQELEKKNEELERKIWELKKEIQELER
# [16] = target: T16, 4H3613-bH; test: two-hybrid library CCNG1
# T16 chain: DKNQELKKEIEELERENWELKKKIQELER
# [17] = target: T17, 4H3628-bH; test: two-hybrid library CCNG1
# T17 chain: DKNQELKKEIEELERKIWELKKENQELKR
# [18] = target: T18, 4H3817-bH; test: two-hybrid library CCNG1
# T18 chain: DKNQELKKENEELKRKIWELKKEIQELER
# [19] = target: T19, 4H3858-bH; test: two-hybrid library CCNG1
# T19 chain: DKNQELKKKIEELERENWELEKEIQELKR
# [20] = target: T20, 4H3926-bH; test: two-hybrid library CCNG1
# T20 chain: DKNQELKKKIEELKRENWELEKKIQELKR
# [21] = target: T21, 4H3974-bH; test: two-hybrid library CCNG1
# T21 chain: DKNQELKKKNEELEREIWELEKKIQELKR
# [22] = target: T22, 4H570-bH; test: two-hybrid library CCNG1
# T22 chain: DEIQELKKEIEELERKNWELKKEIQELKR
# [23] = target: T23, 4H591-bH; test: two-hybrid library CCNG1
# T23 chain: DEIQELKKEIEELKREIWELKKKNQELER
# [24] = target: T24, 4H626-bH; test: two-hybrid library CCNG1
# T24 chain: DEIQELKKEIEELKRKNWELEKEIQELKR
# [25] = target: T25, 4H850-bH; test: two-hybrid library CCNG1
# T25 chain: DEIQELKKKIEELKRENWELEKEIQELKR
# [26] = target: T26, 4H906-bH; test: two-hybrid library CCNG1
# T26 chain: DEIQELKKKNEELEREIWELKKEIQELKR
# [27] = target: T27, O14; test: two-hybrid library CC0; settings: mean of both orientations
# T27 chain: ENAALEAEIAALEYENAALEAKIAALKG
# [28] = target: T28, O15; test: two-hybrid library CC0; settings: mean of both orientations
# T28 chain: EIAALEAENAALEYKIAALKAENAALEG
# [29] = target: T29, O16; test: two-hybrid library CC0; settings: mean of both orientations
# T29 chain: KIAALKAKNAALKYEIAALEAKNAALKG
# [30] = target: T30, O2; test: two-hybrid library CC0; settings: mean of both orientations
# T30 chain: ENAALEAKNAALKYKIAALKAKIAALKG
# [31] = target: T31, O3; test: two-hybrid library CC0; settings: mean of both orientations
# T31 chain: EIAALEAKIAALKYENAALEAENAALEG
# [32] = target: T32, O4; test: two-hybrid library CC0; settings: mean of both orientations
# T32 chain: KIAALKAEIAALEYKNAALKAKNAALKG
# [33] = target: T33, O5; test: two-hybrid library CC0; settings: mean of both orientations
# T33 chain: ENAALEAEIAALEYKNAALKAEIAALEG
# [34] = target: T34, O6; test: two-hybrid library CC0; settings: mean of both orientations
# T34 chain: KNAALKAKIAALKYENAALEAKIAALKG
# [35] = target: T35, O7; test: two-hybrid library CC0; settings: mean of both orientations
# T35 chain: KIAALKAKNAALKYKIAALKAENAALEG
# [36] = target: T36, O8; test: two-hybrid library CC0; settings: mean of both orientations
# T36 chain: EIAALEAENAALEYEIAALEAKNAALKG
# [37] = target: T37, O9; test: two-hybrid library CC0; settings: mean of both orientations
# T37 chain: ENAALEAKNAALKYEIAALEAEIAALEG
binder,measurement,setting,value
B1,interaction score,[1]; mean of both orientations,-0.355
same,interaction score,[2],1.46
same,interaction score,[3],-1.37
same,interaction score,[4],-1.47
same,interaction score,[5],0.052
B2,interaction score,[6],0.599
same,interaction score,[7],0.154
same,interaction score,[8],1.61
same,interaction score,[9],0.533
same,interaction score,[1],0.826
same,interaction score,[10],0.879
same,interaction score,[11],-0.419
same,interaction score,[12],0.893
same,interaction score,[13],0.51
same,interaction score,[14],0.608
same,interaction score,[15],0.211
same,interaction score,[16],0.423
same,interaction score,[17],-0.0215
same,interaction score,[18],0.913
same,interaction score,[19],0.651
same,interaction score,[20],0.243
same,interaction score,[21],0.61
same,interaction score,[22],0.232
same,interaction score,[23],1.2
same,interaction score,[24],-0.838
same,interaction score,[25],1.29
same,interaction score,[26],0.0592
B3,interaction score,[27],-2.52
same,interaction score,[28],-2.74
same,interaction score,[29],0.961
same,interaction score,[30],-2.38
same,interaction score,[31],-2.51
same,interaction score,[32],-2.52
same,interaction score,[33],-0.24
same,interaction score,[34],0.177
same,interaction score,[35],-1.03
same,interaction score,[36],-2.58
same,interaction score,[37],-2.64
